Results: publication PMC11582362

Tested on: chimeric ADAR1-dsRBD3/Xlrbpa-dsRBD2 (Homo sapiens / Xenopus laevis?)
Assay: ITC
Details: N = 3.05 ± 0.31; ITC: 25 mM Na-phosphate pH 7.0, 100 mM NaCl, 2 mM 2-mercaptoethanol, 25 °C; 2.25 uM dsRNA in cell, 80 uM protein in syringe

Sequence: GGGAUCAAUAUGCUAAGCGAUCCC / GGGAUCGCUUAGCAUAUUGAUCCC [24 bp dsRNA duplex]
- Kd: 500 nM
